The results in this text go back to article PMC13482807.

The experiment deals with Microtubule star (Mts) L186A (Drosophila) (UniProt P23696). The experiment in a line: co-IP; S2 cells transfected with the tagged constructs; lysis in 50 mM Tris pH 7.5, 150 mM NaCl, 1% Triton X-100, 10% glycerol, 1 mM EDTA with phosphatase and protease inhibitors; FLAG-tagged proteins on anti-FLAG M2 agarose 1-2 h at 4 °C, eluted with 3x FLAG peptide; immunoblot (Figures EV3G,H, EV5C-E, 5B-D). In general terms: Immunoblotting shows a protein as a band on a membrane.
Chain of UniProt P23696 (P23696 whole entry L186A): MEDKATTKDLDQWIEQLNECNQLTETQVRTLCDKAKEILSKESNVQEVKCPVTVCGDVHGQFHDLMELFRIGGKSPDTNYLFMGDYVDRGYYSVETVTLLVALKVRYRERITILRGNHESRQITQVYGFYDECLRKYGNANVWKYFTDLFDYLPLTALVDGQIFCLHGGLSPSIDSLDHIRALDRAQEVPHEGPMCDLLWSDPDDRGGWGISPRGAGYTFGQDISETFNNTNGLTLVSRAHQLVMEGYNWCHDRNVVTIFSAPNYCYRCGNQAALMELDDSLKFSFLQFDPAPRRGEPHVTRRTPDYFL

In turn, “Connector of kinase to AP-1 (Cka), PP2A B''' regulatory subunit (natural protein)” came in with a reduction of binding relative to Mts^WT of 50%.
